Laboratory results taken from article PMC3706335, “Biophysical characterization and crystal structure of the Feline Immunodeficiency Virus p15 matrix protein” (Retrovirology, 2013).
Where a chain is given by its changes, count along the chain named.

Columns and labels:
[1] = target: the molecule itself; assay: cross-linking; BS3, room temperature, SDS-PAGE; protein at 6 mg/ml in 50 mM MES pH 6
[2] = target: the molecule itself; assay: SEC-MALS; 0.2 ml of his-tagged p15 at 6 mg/ml in 50 mM MES pH 6 on Superdex 200 10/30 in 50 mM MES pH 6
[3] = target: the molecule itself; assay: ITC; dilution experiment, dimer to monomers: p15 at 6 mg/ml (375 μM) in 50 mM MES pH 6 injected into buffer alone, 25°C, dimer dissociation model

B1: FIV p15-Δ120, C-terminal-truncated p15 (truncated after Ser120) with C-terminal 6-His tag (domain or fragment)
chain: MGNGQGRDWKMAIKRCSNVAVGVGGKSKKFGEGNFRWAIRMANVSTGREPGDIPETLDQLRLVICDLQERREKFGSSKEIDMAIVTLKVFAVAGLLNMTVSTAAAAENMYSQMGLDTRPS
notes: matrix protein p15 of the Gag polyprotein of Feline Immunodeficiency Virus, Petaluma strain, truncated after Ser120 (lacks the last 14 residues); residues 2 to 120 seen in the crystal; also called truncated FIV p15; not shown: His6, C-terminal, kept
- binding result [1]: binds

B2: FIV p15-Δ120-R40S (domain or fragment)
chain: B1 chain with R40S
notes: matrix protein p15 of the Gag polyprotein of Feline Immunodeficiency Virus, truncated after Ser120 as m3, with Arg40 mutated to serine; Made from the truncated p15 construct
- binding result [1]: binds

B3: FIV p15 matrix protein, full-length, with C-terminal 6-His tag (natural protein)
chain: MGNGQGRDWKMAIKRCSNVAVGVGGKSKKFGEGNFRWAIRMANVSTGREPGDIPETLDQLRLVICDLQERREKFGSSKEIDMAIVTLKVFAVAGLLNMTVSTAAAAENMYSQMGLDTRPSMKEAGGKEEGPPQAY
notes: matrix protein p15, the N-terminal subunit of the Gag polyprotein of Feline Immunodeficiency Virus, Petaluma strain (plasmid FIV-34TF10); not myristoylated; also called p15-His; full-length p15; not shown: His6, C-terminal, kept
- stoichiometry N [2]: 2
- Kd [3]: ~10 µM
